From paper PMC11079029, “Intramolecular autoinhibition regulates the selectivity of PRPF40A tandem WW domains for proline-rich motifs” (Nature Communications, 2024)
Where a chain is given by its changes, count along the chain named. Values joined by “and” are separate entries in the source; they are usually repeats but may differ in a detail not shown here. Identical values can stand only once.

Tests used:
Conditions in all cases: both partners purified
[1] = target: T1, PRPF40A WW12 (tandem WW domains, residues 141-236) (human, UniProt O75400 141-236); experiment: ITC; 16-mer SF1 and polyproline peptides (N-terminal GB1 tagged) in the cell and PRPF40A construct in the syringe (said for Fig. 2; not told for Fig. 5C); 25 °C, 20 mM sodium phosphate pH 6.5, 100 mM NaCl; one-site model; apparent affinities
T1 construct: pETM11 vector, NcoI/KpnI; 15N or 13C,15N labelled for NMR; also called PRPF40A WW tandem; PRPF40A tandem WW domains; source: E. coli BL21(DE3), purified (Ni-NTA, TEV, reverse Ni-NTA, SEC); not shown: His6, N-terminal, cleaved

[2] = target: T1, PRPF40A WW12 (tandem WW domains, …); experiment: ITC; GB1-tagged SF1/SF3A1 constructs in the syringe and the WW tandem in the cell; 25 °C, 20 mM sodium phosphate pH 6.5, 100 mM NaCl; one-site model; apparent affinities
[3] = target: T2, PRPF40A WW12 (tandem WW domains, residues 141-236) (human, UniProt O75400 141-236); experiment: ITC; MicroCal PEAQ-ITC, 25 °C, 20 mM sodium phosphate pH 6.5, 100 mM NaCl; PRPF40A constructs and GB1-tagged SF1 16-mer peptides; who was in the syringe is not stated for these panels (Fig. 2B, Fig. 5C); one-site model
T2 construct: pETM11 vector (NcoI/KpnI); also called PRPF40A WW tandem; isolated WW domains; source: E. coli BL21(DE3), purified (Ni-NTA, TEV cleavage, reverse Ni-NTA, SEC); not shown: His6, N-terminal, cleaved

[4] = target: T3, PRPF40A N-ext-WW12 (residues 56-236) (human, UniProt O75400 56-236); experiment: as above
T3 construct: PRPF40A isoform 1, residues 56-236: N-terminal proline-rich region and both WW domains; pETM11 vector; also called Nter Ext WW12; N-terminal extended WW12 construct; source: E. coli BL21(DE3), purified (Ni-NTA, TEV cleavage, reverse Ni-NTA, SEC); not shown: His6, N-terminal, cleaved
T3 sequence (looked up): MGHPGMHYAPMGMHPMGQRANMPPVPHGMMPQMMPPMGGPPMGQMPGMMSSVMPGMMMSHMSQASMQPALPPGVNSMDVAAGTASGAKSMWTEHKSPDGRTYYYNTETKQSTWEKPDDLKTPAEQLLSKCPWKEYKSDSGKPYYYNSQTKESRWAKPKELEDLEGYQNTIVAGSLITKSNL

[5] = target: T4, PRPF40A N-ext-WW12 (residues 56-236) (human, UniProt O75400 56-236); experiment: ITC; 16-mer SF1 and polyproline peptides (N-terminal GB1 tagged) in the cell and PRPF40A construct in the syringe (said for Fig. 2; not told for Fig. 5C); 25 °C, 20 mM sodium phosphate pH 6.5, 100 mM NaCl; one-site model; apparent affinities
T4 construct: PRPF40A isoform 1, residues 56-236: N-terminal proline-rich region and the WW tandem; also called N-terminal extended WW12 construct; source: E. coli BL21(DE3), purified (Ni-NTA, TEV, reverse Ni-NTA, SEC); not shown: His6, N-terminal, cleaved
T4 sequence (looked up): T3 sequence (looked up)

[6] = target: T5, PRPF40A N-ext-WW12 mutant (PPVP/PALPP motifs changed to alanine residues) (human, UniProt O75400 56-236, PPVP, residues 78-81, to alanine residues | PALPP, residues 123-127, to alanine …); experiment: as above
T5 construct: PRPF40A isoform 1, residues 56-236, with the motifs PPVP (78-81) and PALPP (123-127) changed to alanine residues; Made by site-directed mutagenesis; also called mutant version of the N-ext-WW12 construct; mutated version of the N-extWW12; source: E. coli BL21(DE3), purified (Ni-NTA, TEV, reverse Ni-NTA, SEC); not shown: His6, N-terminal, cleaved
T5 sequence (looked up): T3 sequence (looked up) with P23A, P24A, V25A, P26A, P68A, L70A, P71A, P72A

B1: GB1-tagged SF1 470-485 peptide (peptide)
chain: GAMSGSMPPPPMGMMPPPPPPPSGSN
notes: common N-terminal residues after the TEV site; SF1 residues 470-485; common C-terminal residues; source: E. coli BL21(DE3), purified (Ni-NTA, SEC), GB1 tag kept; not shown: GB1, N-terminal, kept
Kd [1]: ~10 µM

B2: GB1-tagged SF3A1 Middle Pro (364-413) (domain or fragment, UniProt Q15459 364-413, looked up)
chain: EGQKVPPPPETPMPPPLPPTPDQVIVRKDYDPKASKPLPPAPAPDEYLVS
notes: SF3A1 residues 364-413, proline-rich region with a PPLP motif; also called SF3A1 region (364-413); source: E. coli BL21(DE3), purified (Ni-NTA, SEC), GB1 tag kept; not shown: GB1, N-terminal, kept
Kd [2]: ~10 µM

B3: GB1-SF1(478-493) 16-mer peptide (peptide)
chain: GAMSGSMPPPPPPPSGQPPPPPSGSN
notes: common N-terminal residues after the TEV site (TEVsite-GAMSGS-peptide-SGSN); SF1 (splicing factor 1) residues 478-493; common C-terminal residues; pET24 vector with 6xHis, GB1 and TEV site as N-terminal cassette, not cleaved; source: E. coli BL21(DE3), purified (Ni-NTA, SEC); not shown: GB1, N-terminal, kept
Kd [3]: 8.26 µM and 10.3 µM and 10.2 µM and 9.59 µM

B4: GB1-SF1(470-485) 16-mer peptide (peptide)
chain: GAMSGSMPPPPMGMMPPPPPPPSGSN
notes: common N-terminal residues after the TEV site (TEVsite-GAMSGS-peptide-SGSN); SF1 (splicing factor 1) residues 470-485; common C-terminal residues; pET24 vector with 6xHis, GB1 and TEV site as N-terminal cassette, not cleaved; source: E. coli BL21(DE3), purified (Ni-NTA, SEC); not shown: GB1, N-terminal, kept
Kd [4]: > 250 µM

B5: GB1-SF1(623-638) 16-mer peptide (peptide)
chain: GAMSGSMPPFGMPPAPPPPPPQSGSN
notes: common N-terminal residues after the TEV site (TEVsite-GAMSGS-peptide-SGSN); SF1 (splicing factor 1) residues 623-638; common C-terminal residues; pET24 vector with 6xHis, GB1 and TEV site as N-terminal cassette, not cleaved; source: E. coli BL21(DE3), purified (Ni-NTA, SEC); not shown: GB1, N-terminal, kept
Kd [3]: 21.8 µM and 24.8 µM and 23.3 µM

B6: GB1-SF1(425-440) 16-mer peptide (peptide)
chain: GAMSGSMQPPPPPMNQGPHPPGSGSN
notes: common N-terminal residues after the TEV site (TEVsite-GAMSGS-peptide-SGSN); SF1 (splicing factor 1) residues 425-440; common C-terminal residues; pET24 vector with 6xHis, GB1 and TEV site as N-terminal cassette, not cleaved; source: E. coli BL21(DE3), purified (Ni-NTA, SEC); not shown: GB1, N-terminal, kept
Kd [3]: 15.9 µM and 21.8 µM and 22.9 µM and 20.2 µM

B7: GB1-tagged SF1 Pro ABCD (410-639) (domain or fragment, UniProt Q15637 410-639, looked up)
chain: GHPMQHNPNGPPPPWMQPPPPPMNQGPHPPGHHGPPPMDQYLGSTPVGSGVYRLHQGKGMMPPPPMGMMPPPPPPPSGQPPPPPSGPLPPWQQQQQQPPPPPPPSSSMASSTPLPWQQNTTTTTTSAGTGSIPPWQQQQAAAAASPGAPQMQGNPTMVPLPPGVQPPLPPGAPPPPPPPPPGSAGMMYAPPPPPPPPMDPSNFVTMMGMGVAGMPPFGMPPAPPPPPPQN
notes: SF1 residues 410-639, the whole proline-rich C-terminal region; also called complete C-terminal region of SF1; source: E. coli BL21(DE3), purified (Ni-NTA, SEC), GB1 tag kept; not shown: GB1, N-terminal, kept
stoichiometry N [2]: 3 PRPF40A tandems per SF1 construct

B8: GB1-tagged SF1 575-590 peptide (SF1 PRPF40A WW binding site) (peptide)
chain: GAMSGSPPLPPGAPPPPPPPPPSGSN
notes: common N-terminal residues after the TEV site (TEVsite-GAMSGS-peptide-SGSN); SF1 residues 575-590; common C-terminal residues; pET24 vector with 6xHis, GB1 and TEV site as N-terminal cassette; not cut with TEV for ITC and NMR titrations; also called SF1_(WWbs); source: E. coli BL21(DE3), purified (Ni-NTA, SEC), GB1 tag kept; not shown: GB1, N-terminal, kept
Kd [1]: 1.4 µM
Kd [5]: 8.8 µM
binding result [6]: binds
